Source: the DeepSol protein solubility set

Experiment: soluble on expression in E. coli; label from the status in PepcDB or PDB records

Row | Sequence | soluble on expression in E. coli
1 | GMSLIPEIDAFLGCPTPDAWIEAALADQETLLIDHKNCEFKAASTALSLIAKYNTHLDLINMMSRLAREELVHHEQVLRLMKRRGVPLRPVSAGRYASGLRRLVRAHEPVKLVDTLVVGAFIEARSCERFAALVPHLDEELGRFYHGLLKSEARHYQGYLKLAHNYGDEADIARCVELVRAAEMELIQSPDQELRFHSGIPQALAA | soluble
2 | MGSDKIHHHHHHNEMTEMNPDTNRTIGLDVYTEVQTRGTETTTSTLKANAGFGIFAYQTSSAGWNSEKGNTTPNFMYNEHATWTSDSWGYTNLRFWPIDDKKITFFAYAPYESKPEVGTDQKITLSGQNAKGAPTITFEVKTSNNWKDMIDLVTDCHTAIQDQTNESNKGTVQFKFSHVLTQIANIKVKPDVNLGTDTKIFVTGLKLDPGSTTLYNKAVYKFDNDTWEAISPDASYFSTEQDLSDFLNKTTTDQWGYNKSSINVSDDQNATALFSDTEALYFIPVNNKNGTTNAGDLKLKINYDIVTKVTDTSNLTSTITNKEVSLPKNTFKKGTKHTYVLTIKMNAIKITVEDNMEGWTDDSDSDINVEK | not soluble
3 | MTTPNPLAKTKGAGTTFWMYTGNGDAFANPLSDTDWLRLAMVKDLQPGEMTADAEDDTYLDDEDADWKTTTQGQKSVGDTSATLACRPGDSGQKKLVQLFDSGEVCAFRIKYPNGTVDVFRGWLSSLGKTIASKDVMTRTVKISGVGRPYLAEEGTETVGVTGLTVAPASVSVKAGATTTLTFTVKPDGASDKAISVHSSDPQTASVTLSGLVATVKGVKQGSVSIVGMTSDGEFVAVAAVTVSAP | not soluble
4 | MAHHHHHHMRRGGTVVFQRHRVSGGISRANEMSAFARLRGGQQKTETDWVPTLLLSGETPPPIARPAETAAFFLASFDPFVFSYCMFDFPTILHHAGELSEHELLDYPGSMLMSPRSLFLQPTAHLRFGSERQQRMAVVLQSLLDRHDESERSPVPCARALGVQCPLFVPFLRGVCLCVETQHPFAPQAAYVFEELLASGFVSSTLYLDGTYVDRNRTLAQIVQLAAREFGSESALFTGLLLDEEHASPPETIAVGRLVAQTLAAADRRRLDWALKTRGAVRQRLVPQHGWTLGPSPSLLSTAQQ | soluble
5 | MSLSLKELLKDRLSEEELKLVRRSFEIIGDVVIIEIPDEIMHHSRDIVEAILKRHKHVKTVLRKVGEVDGVYRVARYEPIYGEKTETVVREHGCRFLVDPTKAYYSVKLSGERERIARLVGEGERVLVMFAGVGPYPIVIAKLARPREVVGVELNPHAVEYFRQNVRLNKVEGVVKVIEGDVEEVVPQLSGQFDRVVMPAPYSAENFIHLLRGKVRRGGFVHYYTFDSQNEEKILPEKVRRKFEDEGLEVEVVKMRRCGNFAPYVNRYVLDLRVLEGHHHHHH | soluble
6 | MALDVKKYPFIKSLDDELKKYGGGITLTDLLLNSTTLIDQAKDRIQKTKSGDELPHYVSYNEPVLVFYTTLLSLAILNDVKLIRRYAYAEAKQFRSLLHTENEENLLEISKLLDLKINRCDPIKFYLEKKRRIIQKEFCVHFIDYLKYTKDLKEDWKLSGQILHKGYVYLDKNQLIGLIAESIKSKIVEMIRPLNLKEIPEKLKSLIERRGI | soluble
7 | MGSDKIHHHHHHQKEGSLKIGKEGAESGFINLRVEIPPGAFGKQKVLKITRLSDEERKLYPDVFVGDLYRVEFADGVDEFALKPIRLKYYFDAKYLRGENYNNLTFAYATEDGGYRIIPGSMIGKDERGYYVEAFTYHLSVFGVVLRSAGFQKHGIRLLREAVNSSGPAVLLVPGEDPTFEGVVKDNNIWETIFPDRTIMTYEYALYEPRSLAYSEMYRSFIEKEGRRSFIDFESDFLSQEILKYSQYEFDILAHGTGGLIVLRMLQRHPEVNNVRKVVLLSTPVQGTNVVNPLYFSSIFYGKDPEVLEDIFGIEWTKLKMLTLHIRNLIDTLGEVVQEILPDSQLVKELGGFSRNDVEIVSICGDTPPYGVDVSGTELERFYPEFVKGRGDGFVSIQSCRVGKVEQLSGNFYDLYSREENVAYIRELLKYEVQVFSGFRSDDYEEYLPSKNPELSEESAQKVVEVKETEGTEFPVLPVNILFENFLERIRSLELSSYLSGALVGKEVYIATESGVFAWDKKVLDKKIEFFKKIEDYASFVGEGDIFIIDNIGIKKYAPFPLVGDISDALITRNAIIYARVVPGGVRYYLFRNGAEKLIATSPGTTVRMKSENGNYLLITDGEVVAIGSDFKEKGRVLSSLFGEKVKIVDASFKDDAFYILLNDGSIAFVSSSRSETKNYGLAVPKKVLNFQGRILVVYDGVILDLSAGKAQRFDRGIIDVFPGNESLFIVFDEKVRVSVEEWWLSKD | not soluble
8 | MSLSYGVKLHVWGERALFTRPEMKVERVSYDIITPSAARGILEAIHWKPAIRWMVDSIQVLKPIRFESIRRNEVGGKLSAASVSKAIKAGRTDTLVSYVEEDRQQRAATLLRDVGYVIAAHFELTDKAGADDNVGKHLDIFNRRARRGQCFQAPCLGTREFPASFALIEDDAAMPAADATLAGERDLGWMLHDIDFADGMTPRFFRARMVDGQVEVPAPENGGVRAEGHHHHHH | soluble
9 | MSSGDMTSEYKDKQGGGAGQPLTKSENNDGKKTLTNGMSRVHRVLTEDEIASGRSTRWTELEIHGRVKNLSPSLWQLTHLSALFLNNNGLTRLPPEIAQLTNLTMLDISNNKLRSLPTELGDMISLCHLYLNNNQLRVLPYELGKLFRIQTLGLQGNPLSPEISKIYHETNGAQKILQFLLDHLTINTHPPPERNWVMIRHADPERPIATFTVLCYNVLCDKYATVNQYSYCPSWALNWEYRKGLIIKEIRTYEADVITLQEVETEQFRTLFQPELKQLGYAGIFEAKSRAKTMGEEERKYVDGCAIFWKVDKFDMDKQYLFEFSSVAMKKASTSENMLNRVMPRDNIGLCAVLKIKESVYANKFLGRMQIPMNDNVVGNPLVVATAHIHWDPEFCDVKLVQSMMLTHEVSRVLEEVSKKYQITQQQVPVLICGDFNSLPDSGVFEYLSKGQITRRHMDLKSFRDDSCLEKFTNSTDKNVISHPLRLDSACDINSIPFTNYTLDFKGMIDYIFATPQSLARLGILGPFDPQWVQSNKILGFPHPHVASDHIPIMAQYAIIPTTHQRQQPLQQAGPAAGVIGGGFPSTPSGAQPFLRC | not soluble
10 | MGSDKIHHHHHHMLIQIADLFTPAEAAQIRARLEAADWVDGKVTAGYQSAQVKHNRQLSEQHPLAQELGGLILQRLAANNLFMSAALPRKIFPPLFNRYEGGEAFGYHVDNALRPVPGTAERVRTDLSATLFFSEPDSYDGGELVVDDTYGPRTVKLPAGHMVLYPGTSLHKVTPVTRGARISAFFWLQSLVREDSQRSLLLEMDVAIQRLNQDTPGHASIVQLTGVYHNLLRRWTDV | not soluble
11 | MAHHHHHHMREARERARIAEAEADSAMEAADRAILEELLRKDEEERRAAAEREAAARRAAEERAAAERLKAEDEARQAAEAARQRALEEERQRQRESAKQAAKSQLHDEPSTDVATSETVQISVRCPSGKHYDRRFLRSDLVDQLTFFVLTLDEVADATDASTVRFVTGFPPAPLVWREGETRFGDVKSLCPRAVVLLRRL | not soluble
12 | MGMACLTMTEMEATSTSPVHQNGDIPGSANSVKQIEPVLQVYLYHSLGQAEGEYLKFPSGEYVAEEICVAASKACGITPVYHNMFALMSETERIWYPPNHVFHIDESTRHDILYRIRFYFPHWYCSGSSRTYRYGVSRGAEAPLLDDFVMSYLFAQWRHDFVHGWIKVPVTHETQEECLGMAVLDMMRIAKEKDQTPLAVYNSVSYKTFLPKCVRAKIQDYHILTRKRIRYRFRRFIQQFSQCKATARNLKLKYLINLETLQSAFYTEQFEVKESARGPSGEEIFATIIITGNGGIQWSRGKHKESETLTEQDVQLYCDFPDIIDVSIKQANQECSNESRIVTVHKQDGKVLEIELSSLKEALSFVSLIDGYYRLTADAHHYLCKEVAPPAVLENIHSNCHGPISMDFAISKLKKAGNQTGLYVLRCSPKDFNKYFLTFAVERENVIEYKHCLITKNENGEYNLSGTKRNFSNLKDLLNCYQMETVRSDSIIFQFTKCCPPKPKDKSNLLVFRTNGISDVQISPTLQRHNNVNQMVFHKIRNEDL | not soluble
13 | MAHHHHHHMLLQFNWDRLDVTAAEAICALLNAKLEEELLLRRAANQSVNASGGQETASADAACGVESLRVTNIEWGNVPPFIEVVELDDAVEFASSTPLSFEAPLGQQDFGGTISSGTCGGGATTPFFLRPSPASSVTMMDGISETDSGIVGNHGGMPTPSVPPASGIRPGNGQSPINSSSAPVKDAFAAYFGPKGLYVCLHVTYGGPMRVSVASVLRHDVPLGPIAIPVRMPLQLHFSKMDMDFHLCINLHRNTCRVWMEPGKLFTSPLNRMNVMAVFGERRPSSQHMAEFPTSGQNAGDDLDTSDAWTHVGSSRIGSDDAEDMVFIDESIISQFVLKEVRAILQEKIIYPHSVVVPLSL | not soluble
14 | SLLPDIPEPLKNGTGAIDNNGVIYVGLGTAGTSWYKIDLKKQHKDWERIKSFPGGAREQSVSVFLNDELYVFGGVGKKNSESPLQVYSDVYKYSPVKNTWQKVDTISPVGLTGHTGVKLNETMVLITGGVNEHIFDKYFIDIAAAAADESEKNKVIYNYFNKPAKDYFFNKIVFIYNAKENTWKNAGELPGAGTAGSSSVMGNNFLMLINGELKPGLRTDVIYRAMWDNDKLTWLKNSQLPPSPGEQQQEGLAGAFSGYSHGVLLVGGGANFPGAKQNYTNGKFYSHEGINKKWRDEVYGLINGHWQYMGKMKQPLGYGVSVSYGDEVFLIGGENAKGKPVSSVTSFTMRDGNLLIK | not soluble
15 | SPIIPEAARALYYNDGMFEGDIKLRAGRQPARVGAAILGDEYLWSGGVIPYTFAGVSGADQSAILSGMQELEEKTCIRFVPRTTESDYVEIFTSGSGCWSYVGRISGAQQVSLQANGCVYHGTILHALMHAIGFYHEHTRMDRDNYVTINYQNVDPSMTSNFDIDTYSRYVGEDYQYYSIMHYGKYSFSIQWGVLETIVPLQNGIDLTDPYDKAHMLQTDANQINNLYTNECSLR | soluble
16 | MGSDKIHHHHHHMNAPAHDNGRLALMLNELRLPTIGRLWPEFAERSDKEGWPATRLLGALLEHELAERAKRRIERHRTESHLDPTKTLATFDFGMVPMVSKAHVTALATGESWLEKGATILLFGPPGAGKSHLGSAIGHALIDAGYRVLFTRTSELVQKLQAARQSLQLPSALAKLDRFDLIILDDLSYARKDQAETSVLFELIAERYERKSLLITANQPFSGWNDVFPDPGMTVAAIDRLVHHSTIFELNVESYRRRKASDKQSARRRQLPDDNYEGGATIMN | not soluble
17 | MGSDKIHHHHHHMTKLAIMSDLHIDLNHFSTFETKTLINLLKKEKIDHLHIAGDISNHFTKDTLPFINNLKKHIKLSYNLGNHDMLDLTETEIQRLDFQTYRFDKKMLLAFHGWYDYSFSNNRDIKDVEKLKKTFWFDRRLKRPNNDVTIQASILKRLDEILAKVDSSNIIIAMHFVPHKQFTMTHPRFSPFNAFLGSQAYHDLFQKYHIKDVVFGHAHRSFGDVKIGETTYHSRPLGYIREWNLTIDFVNQNPNHNPNLTWNLSKRYNAVKHLDSFENYRKKYFEDELRNSMTIFDC | not soluble
18 | MEIATRLKMNVKEQTEVILTNFTKMLFRRKLIKDQQSLLNKLKNIDTKDIYHFKENDMNFLLIITFQKLNGIKKGSEIEEQLIKSKGYNFIIASQSSNKTYQQVKNFKGELFLTLEFLSDIPSLPFVPEHILLSEKEKEEILSVYKEKNIAKIFVTDMMARYLGAKKGDLIKIIRKTLNTGESIYYRRVF | not soluble
19 | MRKLALVPIQFYRYAISPLMASHCRFYPSCSCYAYEAIDNHGLLRGGWLSIRRLGRCHPWNPGGYDPVPAVPTSRSSSMAELEHHHHHH | not soluble
